Assay results reported in PMC7251641.

Molecular target: Htz1^Flag (S. cerevisiae histone H2A.Z with a Flag epitope tag) (S. cerevisiae) (UniProt Q12692)
Assay: co-IP

Sequence of Htz1^Flag (S. cerevisiae histone H2A.Z with a Flag epitope tag) (S. cerevisiae) (Q12692 whole entry): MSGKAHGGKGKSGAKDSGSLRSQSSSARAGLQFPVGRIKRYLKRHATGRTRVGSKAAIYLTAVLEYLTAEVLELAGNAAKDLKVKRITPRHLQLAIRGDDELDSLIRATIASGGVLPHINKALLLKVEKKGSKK
Sequence of histone H2A (S. cerevisiae, endogenous) (P04911 whole entry): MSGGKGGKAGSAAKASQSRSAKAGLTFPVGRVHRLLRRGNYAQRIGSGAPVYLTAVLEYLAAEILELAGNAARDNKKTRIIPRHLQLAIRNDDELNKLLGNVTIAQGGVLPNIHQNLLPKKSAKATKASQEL

estimated molar ratio of H2A and Htz1^Flag in the Flag eluate: 0.49
Substance: histone H2A (S. cerevisiae, endogenous) (from UniProt P04911 1-132) (natural protein)
